Data as given in patent US20210079089A1 (SURROZEN OPERATING, published 2021).

Assays:
LRP6e1e2 [1] = target: T1, LRP6e1e2 (UniProt O75581 20-630, limits assumed, C-terminally biotinylated); assay: Octet BLI, affinity class
T1 construct: domain: E1E2; also called LRP6 E1E2 domains
T1 sequence (looked up): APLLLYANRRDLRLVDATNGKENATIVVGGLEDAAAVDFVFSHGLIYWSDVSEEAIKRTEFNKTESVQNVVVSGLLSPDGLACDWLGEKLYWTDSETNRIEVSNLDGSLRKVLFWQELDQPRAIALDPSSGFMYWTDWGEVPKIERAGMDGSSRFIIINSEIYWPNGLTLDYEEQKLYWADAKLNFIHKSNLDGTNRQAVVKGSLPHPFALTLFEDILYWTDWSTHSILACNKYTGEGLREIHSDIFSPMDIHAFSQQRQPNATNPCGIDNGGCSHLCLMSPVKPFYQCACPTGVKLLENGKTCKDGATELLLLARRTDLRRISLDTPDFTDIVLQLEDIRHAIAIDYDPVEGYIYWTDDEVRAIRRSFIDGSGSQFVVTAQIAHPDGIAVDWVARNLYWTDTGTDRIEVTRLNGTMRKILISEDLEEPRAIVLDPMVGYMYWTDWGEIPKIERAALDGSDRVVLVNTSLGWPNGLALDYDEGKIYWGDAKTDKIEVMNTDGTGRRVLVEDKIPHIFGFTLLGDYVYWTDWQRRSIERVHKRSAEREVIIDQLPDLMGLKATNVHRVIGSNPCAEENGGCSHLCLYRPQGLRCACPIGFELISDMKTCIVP
Experimental: (§1) Binding kinetics of antibody fragments to LRP5 extracellular domain (LRP5 ECD) and/or LRP6 extracellular domain (LRP6 ECD) protein targets was determined by bio-layer interferometry (BLI) using Octet Red 96 (PALL ForteBio, Fremont, Calif.) instruments at 30° C., 1000 rpm with streptavidin (SA) biosensors. C-terminal biotinylated LRP ECD recombinant protein was diluted to 20 nM in the running buffer (PBS, 0.05% Tween-20, 0.5% BSA, pH 7.2) and captured to the SA biosensor until coupling length reached 0.2 nm. Following capture of the LRP5 or LRP6, the SA biosensor with captured biotinylated-LRP5 or biotinylated LRP6 was dipped into wells containing the relevant antibody fragment at […] (0, 1.37, 4.12, 12.4, 37, 111.1, 333.3, 1000 nM) in running buffer, plus a well with only running buffer as a reference channel. KD was determined by global fitting, 1:1 binding model according to manufacturer recommended settings.

LRP6E3E4_O75581_631-1246 [2] = target: T2, LRP6E3E4_O75581_631-1246 (Homo sapiens (Human), UniProt O75581 631-1246, biotinylated in the BLI/SPR assays (C-terminal biotin acceptor peptide)); assay: Octet BLI
T2 construct: The entry holds residues 631-1246 of UniProt O75581 followed by a biotin acceptor peptide and eight His
T2 sequence: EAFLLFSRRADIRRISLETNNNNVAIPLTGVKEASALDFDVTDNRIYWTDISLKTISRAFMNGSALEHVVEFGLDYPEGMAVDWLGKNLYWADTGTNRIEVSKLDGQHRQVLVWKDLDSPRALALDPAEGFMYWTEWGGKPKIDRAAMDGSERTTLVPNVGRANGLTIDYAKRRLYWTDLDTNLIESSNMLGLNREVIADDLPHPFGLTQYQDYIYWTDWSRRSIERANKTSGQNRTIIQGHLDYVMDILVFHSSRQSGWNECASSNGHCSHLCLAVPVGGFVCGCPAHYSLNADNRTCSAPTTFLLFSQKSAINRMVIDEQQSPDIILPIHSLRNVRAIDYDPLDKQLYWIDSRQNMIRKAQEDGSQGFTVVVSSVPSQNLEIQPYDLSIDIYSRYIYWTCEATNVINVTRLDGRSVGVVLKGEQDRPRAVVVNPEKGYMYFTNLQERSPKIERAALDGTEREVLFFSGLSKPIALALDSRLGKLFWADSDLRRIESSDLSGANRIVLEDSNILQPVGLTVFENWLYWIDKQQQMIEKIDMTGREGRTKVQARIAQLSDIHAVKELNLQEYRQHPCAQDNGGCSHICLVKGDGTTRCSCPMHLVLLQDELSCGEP
Experimental: as §1

LRP6e1e2 [3] = target: T1, LRP6e1e2; assay: Octet BLI or BIAcore SPR
LRP6E3E4_O75581_631-1246 [4] = target: T2, LRP6E3E4_O75581_631-1246; assay: Octet BLI, affinity class
Experimental: as §1

LRP6e1e2 [5] = target: T1, LRP6e1e2; assay: Octet BLI
Experimental: as §1

LRP6E3E4_O75581_631-1246 [6] = target: T2, LRP6E3E4_O75581_631-1246; assay: Octet BLI or BIAcore SPR
LRP6E3E4_O75581_631-1246 [7] = target: T3, LRP6E3E4_O75581_631-1246 (Homo sapiens (Human), UniProt O75581 631-1246); assay: co-crystal structure (figure legend)
T3 construct: also called LRP6E3E4 construct used for structural studies
T3 sequence: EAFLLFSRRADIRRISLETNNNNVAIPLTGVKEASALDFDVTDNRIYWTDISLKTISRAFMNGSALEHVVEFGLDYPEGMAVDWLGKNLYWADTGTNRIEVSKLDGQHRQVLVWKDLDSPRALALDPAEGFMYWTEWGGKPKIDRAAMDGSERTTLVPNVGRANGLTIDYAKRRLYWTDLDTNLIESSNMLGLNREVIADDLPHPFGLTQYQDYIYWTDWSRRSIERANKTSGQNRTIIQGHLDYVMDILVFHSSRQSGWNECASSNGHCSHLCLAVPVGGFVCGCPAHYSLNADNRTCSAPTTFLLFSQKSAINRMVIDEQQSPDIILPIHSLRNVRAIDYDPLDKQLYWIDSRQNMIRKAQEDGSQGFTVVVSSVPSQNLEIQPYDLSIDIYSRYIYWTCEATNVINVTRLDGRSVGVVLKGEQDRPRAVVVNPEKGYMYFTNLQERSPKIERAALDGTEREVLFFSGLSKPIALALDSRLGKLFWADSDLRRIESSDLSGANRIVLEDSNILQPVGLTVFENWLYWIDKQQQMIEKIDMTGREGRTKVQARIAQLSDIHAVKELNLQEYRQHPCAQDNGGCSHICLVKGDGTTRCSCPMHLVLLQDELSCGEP
Experimental: Structure of Lrp6E3E4:VHH/Fab complexes were determined by molecular replacement method using Phaser [Phaser crystallographic software. A. J. McCoy, R. W. Grosse-Kunstleve, P. D. Adams, M. D. Winn, L. C. Storoni, and R. J. Read. J Appl Crystallogr 40, 658-674 (2007)] with published structures Lrp6E3E4 [PDB code: 4AOP; Chen S, Bubeck D, MacDonald B T, Liang W X, Mao J H, Malinauskas T, Llorca O, Aricescu A R, Siebold C, He X, Jones E Y. Dev. Cell 21 848-61 (2011)] and a VHH or sdAb [PDB code: 6B20, chain E; Gulati S, Jin H, Masuho I, Orban T, Cai Y, Pardon E, Martemyanov K A, Kiser P D, Stewart P L, Ford C P, Steyaert J, Palczewski K. Nat Commun 91996 (2018)], followed by refinement and validation by MolProbity as implemented in Phenix [PHENIX: a comprehensive Python-based system for macromolecular structure solution. P. D. Adams, P. V. Afonine, G. Bunkoczi, V. B. Chen, I. W. Davis, N. Echols, J. J. Headd, L. W. Hung, G. J. Kapral, R. W. Grosse-Kunstleve, A. J. McCoy, N. W. Moriarty, R. Oeffner, R. J. Read, D. C. Richardson, J. S. Richardson, T. C. […]
Diffraction quality crystals of Lrp6E3E4:VHH36 (concentration=14.0 mg/mL) were obtained by grid-screen optimization in a condition containing 1.6 M ammonium sulfate and 0.1 M Tris pH 8.2. […] Structure of Lrp6E3E4:VHH36 complex was determined at a resolution of 2.70 Å, and refined to Rcryst and Rfree factors of 18.6% and 22.8%, respectively.

LRP6E3E4_O75581_631-1246 [8] = target: T2, LRP6E3E4_O75581_631-1246; assay: Octet BLI or BIAcore SPR; Table 1B (heavy-chain-only clones)

B1: 009S-G02 (VHH)
VHH: AVQLVESGGGLVQAGGSLRLSCGVSGSIFSIYAMGWYRQAPGKERELVAVITSGGKTVYADSVKGRFTITEDAAKNTVYLQMNSLKAEDTAVYYCYADSRSSWYDEYLEHWGRGTLVTVSS
With B1 the Kd (LRP6e1e2 [1]) was less than 500 nM, the binding result (LRP6E3E4_O75581_631-1246 [2]) was “no binding” and the Kd (LRP6e1e2 [3]) was less than 500 nM.

B2: 009S-H04 (VHH)
VHH: EVQLVESGGGLVQAGGSLRLACAGSGRIFAIYDMAWYRQAPGNQRELVATIRPVVSETTYADAVKGRFTISRSNAMKTVYLQMNSLKSEDTAIYYCNAKRPWGTRDEYWGQGTLVTVSS
B2 was tested, and the Kd (LRP6E3E4_O75581_631-1246 [4]) was less than 500 nM, the binding result (LRP6e1e2 [5]) was “no binding” and the Kd (LRP6E3E4_O75581_631-1246 [6]) was less than 500 nM.

B3: VHH36 (013S-D05) (VHH)
VHH: QVKLEESGGGLVQAGGSLRLSCAASGRIFSIYDMGWFRQAPGKEREFVSGIRWSGGTSYADSVKGRFTISKDNAKNTIYLQMNNLKAEDTAVYYCGSRGYWGQGTLVTVSS
modifications: Gln1 modified as pyroglutamate
notes: construct of the crystal structure
B3: binds (LRP6E3E4_O75581_631-1246 [7]).

B4: 013S-D05 (HC SEQ ID NO 18) (VHH)
VHH: QVKLEESGGGLVQAGGSLRLSCAASGRIFSIYDMGWFRQAPGKEREFVSGIRWSGGTSYADSVKGRFTISKDNAKNTIYLQMNNLKAEDTAVYYCGSRGYWGQGTLVTVSS
B4 was tested, and the Kd (LRP6E3E4_O75581_631-1246 [4]) was less than 500 nM, the binding result (LRP6e1e2 [5]) was “no binding” and the Kd (LRP6E3E4_O75581_631-1246 [6]) was less than 500 nM.

B5: 013S-H04 (HC SEQ ID NO 16) (VHH)
VHH: AVQLVDSGGGLVQAGGSLRLSCAVSGRTFSMYDMGWFRQAPGKEREFVASIRWSSGNTWYADSMKGRFTISRDNAKNTVYLQMNSLKPEDTAVYYCYANIYYTRRAPEEYWGQGTLVTVSS
For B5, the Kd (LRP6E3E4_O75581_631-1246 [4]) was less than 500 nM, the binding result (LRP6e1e2 [5]) was “no binding” and the Kd (LRP6E3E4_O75581_631-1246 [6]) was less than 500 nM.

B6: 009S-B04 (VHH)
VHH: DVQLVESGGGLVQPGGSLRLSCAASGSIFMINTMAWYRQAPGNQRELVATIRPVVSETTYADAVKGRFTISRDNAKNTVYLQMNSLKSEDTAIYYCNAKRPWGTRDEYWGQGTLVTVSS
B6 was tested, and the Kd (LRP6E3E4_O75581_631-1246 [4]) was less than 500 nM, the binding result (LRP6e1e2 [5]) was “no binding” and the Kd (LRP6E3E4_O75581_631-1246 [6]) was less than 500 nM.

B7: 009S-D04 (VHH)
VHH: QVKLEESGGGLVQPGGSLRLSCETSATIVSIYRINWYRQAPGKQREWVAGITSSGRTIYADSVKGRFTISRDNAKNTVYLQMNNLKPEDTAVYYCNAASTVTAWPYYGPDYWGKGTLVTVSS
With B7 the Kd (LRP6e1e2 [1]) was less than 500 nM, the Kd (LRP6E3E4_O75581_631-1246 [4]) was less than 500 nM and the Kd (LRP6E3E4_O75581_631-1246 [8]) was greater than 500 nM.

B8: 009S-F03 (VHH)
VHH: DVQLVESGGGLVQAGGSLRLSCAASGRTFSSYAMSWFRQAPGKEREFVAVIGRSGGIKYYADSVKGRFTISRDNTINTVYLQMNNLTPEDTAIYYCATRRPFNSYNTEQSYDSWGRGTLVTVSS
With B8 the Kd (LRP6e1e2 [1]) was less than 500 nM, the binding result (LRP6E3E4_O75581_631-1246 [2]) was “no binding” and the Kd (LRP6e1e2 [3]) was less than 500 nM.

B9: 009S-D03 (VHH)
VHH: DVQLVESGGGLVQPGGSLRLSCAAPGSIFSDGAMGWYRQAPGKQRELVAVISGGRTGYADFVKGRFTISRDNGKNTVNLQMNRLEPEDTAVYFCNTYPFPIYKKGYPFWGQGTQVTVSS
B9 was tested, and the Kd (LRP6e1e2 [1]) was less than 500 nM, the binding result (LRP6E3E4_O75581_631-1246 [2]) was “no binding” and the Kd (LRP6e1e2 [3]) was less than 500 nM.

B10: 009S-G04 (VHH)
VHH: EVQLVESGGGLVQAGGSLRVSCAASGGTFSRYHMGWFRQAPGKEREFVSAITWSGGRTYYADFVKGRFTISRDDARNTVYLQMSSLKPEDTAVYYCALTWAPTPTNRRSDYAYWGQGTQVTVSS
B10 was tested, and the Kd (LRP6E3E4_O75581_631-1246 [4]) was less than 500 nM, the binding result (LRP6e1e2 [5]) was “no binding” and the Kd (LRP6E3E4_O75581_631-1246 [6]) was less than 500 nM.

B11: 009S-A04 (VHH)
VHH: AVQLVESGGGLVQAGGSLRLSCAASGRTLSAYDMGWFRQAPGKERELVGGIRWSGGTTLYPDSVKGRFTISRDNAKNTVYLQMNSLKPEDSAVYYCYARTVIGGFGAFRAHWGQGTQVTVSS
With B11 the Kd (LRP6e1e2 [1]) was less than 500 nM, the binding result (LRP6E3E4_O75581_631-1246 [2]) was “no binding” and the Kd (LRP6e1e2 [3]) was less than 500 nM.

B12: 013S-C05 (HC SEQ ID NO 17) (VHH)
VHH: EVQLVESGGGLVQPGGSLRLSCAVSRNIFPIDDMSWYRQAPGKQRELVATVTSGGRINYADSVKGRFTISRDGARRTIDLQMNNLKPEDTAVYYCNVDRTLYGKYKEYWGQGTLVTVSS
B12 was tested, and the Kd (LRP6E3E4_O75581_631-1246 [4]) was less than 500 nM, the binding result (LRP6e1e2 [5]) was “no binding” and the Kd (LRP6E3E4_O75581_631-1246 [6]) was less than 500 nM.
